The numbers were not newly measured in article PMC3164694, which cites them from elsewhere.

A word on the Kd: it is the constant that tells how readily two partners part at equilibrium.

One data set addresses TIMP-2 (Homo sapiens) (UniProt P16035).
A further data set addresses MMP-2 (Homo sapiens) (UniProt P08253).

Sequence of MMP-2 (Homo sapiens) (P08253 110-660): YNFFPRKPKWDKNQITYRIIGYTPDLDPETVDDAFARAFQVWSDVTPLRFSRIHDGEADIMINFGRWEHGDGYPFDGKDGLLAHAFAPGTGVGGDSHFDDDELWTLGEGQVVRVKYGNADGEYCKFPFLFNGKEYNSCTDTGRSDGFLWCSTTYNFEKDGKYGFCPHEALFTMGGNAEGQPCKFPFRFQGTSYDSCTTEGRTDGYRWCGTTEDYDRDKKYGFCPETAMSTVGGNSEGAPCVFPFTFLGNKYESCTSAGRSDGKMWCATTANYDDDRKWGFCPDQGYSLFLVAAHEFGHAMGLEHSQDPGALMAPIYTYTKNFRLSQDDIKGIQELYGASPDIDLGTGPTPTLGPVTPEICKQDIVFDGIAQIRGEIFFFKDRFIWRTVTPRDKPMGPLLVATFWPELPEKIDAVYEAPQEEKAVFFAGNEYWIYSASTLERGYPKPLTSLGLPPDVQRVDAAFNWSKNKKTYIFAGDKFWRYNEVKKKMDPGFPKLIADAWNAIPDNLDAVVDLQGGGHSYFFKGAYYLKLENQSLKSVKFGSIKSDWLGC

For MT1-MMP (from UniProt P50281), the Kd in the data set with TIMP-2 (Homo sapiens) is 2.54 nM. Consider “MT1-MMP/TIMP-2 complex (from UniProt P50281)”, for which the Kd in the data set with MMP-2 (Homo sapiens) was 0.56 nM.
